Source: the Human Domainome abundance scans (Beltran et al. 2025)
± gives the uncertainty stated by the source.

B1: Far upstream element-binding protein 1, residues 184 to 257; numbered along this chain, Q96AE4 (parent)
chain: GNAVQEIMIPASKAGLVIGKGGETIKQLQERAGVKMVMIQDGPQNTGADKPLRITGDPYKVQQAKEMVLELIRD

Variants of: B1
Test: abundance fitness (aPCA) (normalised: wild type 0, dead -1); higher = more abundant; growth selection in yeast, the domain comes from the species named
Conditions: Homo sapiens

Variant	abundance fitness
GNAVQEIMIPASKAGLVIGKGGETIKQLQERAGVKMVMIQDGPQNTGADKPLRITGDPYKVQQAKEMVLENIRD [L71N]	-0.242 ± 0.049
GNAVQEIMIPASKAGLVIGKGGKTIKQLQERAGVKMVMIQDGPQNTGADKPLRITGDPYKVQQAKEMVLELIRD [E23K]	0.062 ± 0.039
GNAVQEIMIPASKAGLVIGKGGETIKQLQERAGVKMVMIQDGPQNTGADKPLRITGDPYKVQQAKEVVLELIRD [M67V]	-0.126 ± 0.029
GNAVQEIMIPASKAGLVIAKGGETIKQLQERAGVKMVMIQDGPQNTGADKPLRITGDPYKVQQAKEMVLELIRD [G19A]	-0.339 ± 0.033
GNAVQEIMIPASKAGLVIGKGGETIKQLQERLGVKMVMIQDGPQNTGADKPLRITGDPYKVQQAKEMVLELIRD [A32L]	-0.017 ± 0.031
GNAVQEIMIPASKAGLVIGKGGETIKQCQERAGVKMVMIQDGPQNTGADKPLRITGDPYKVQQAKEMVLELIRD [L28C]	-0.399 ± 0.051
GNAVQEIMIPASKAGLVIGKGGETIKQLQEPAGVKMVMIQDGPQNTGADKPLRITGDPYKVQQAKEMVLELIRD [R31P]	-0.484 ± 0.044
GNAVQEIMIPASKAGLVIGKGGETIKQLQERAGVKMVMIQTGPQNTGADKPLRITGDPYKVQQAKEMVLELIRD [D41T]	-0.052 ± 0.036
GNAVQEIMIPASKAGLVIGKGGETIKQLQERAGVKMVMIQDGPQNTGADKPLRITGDPYKVQHAKEMVLELIRD [Q63H]	-0.069 ± 0.049
GNAVQEIMIPASKAGLVIGKGGETIKQLQERAGVKMVMIQDGPQNTGADKPLRITGDPYKVQDAKEMVLELIRD [Q63D]	-0.116 ± 0.04
GNAVQEIMIPASKAGLDIGKGGETIKQLQERAGVKMVMIQDGPQNTGADKPLRITGDPYKVQQAKEMVLELIRD [V17D]	-0.479 ± 0.056
GNAVQEIMIPASKAGLNIGKGGETIKQLQERAGVKMVMIQDGPQNTGADKPLRITGDPYKVQQAKEMVLELIRD [V17N]	-0.594 ± 0.073
GSAVQEIMIPASKAGLVIGKGGETIKQLQERAGVKMVMIQDGPQNTGADKPLRITGDPYKVQQAKEMVLELIRD [N2S]	0.128 ± 0.031
GNAVQEIMIPASKAGLVIGKGGETIKQLQERAGVKMVMIQDGPQNTGADKPARITGDPYKVQQAKEMVLELIRD [L52A]	-0.807 ± 0.041
GNAVQEIMIPASKAGLVIGKGGETIKQLQERAGVKMVMIQDGPQNTGADWPLRITGDPYKVQQAKEMVLELIRD [K50W]	-0.058 ± 0.032
GNAVQEIMIPASKAGLVIGKGGETIKQLQERAGVKMVMIQDGPQNTGADHPLRITGDPYKVQQAKEMVLELIRD [K50H]	-0.04 ± 0.049
GNAVQEIMIPASKAGLVIGKGGETIKQLQERAGVKMVMIQDGPQNFGADKPLRITGDPYKVQQAKEMVLELIRD [T46F]	-0.085 ± 0.052
GNAVQEIMIPASKCGLVIGKGGETIKQLQERAGVKMVMIQDGPQNTGADKPLRITGDPYKVQQAKEMVLELIRD [A14C]	0.031 ± 0.044
GNMVQEIMIPASKAGLVIGKGGETIKQLQERAGVKMVMIQDGPQNTGADKPLRITGDPYKVQQAKEMVLELIRD [A3M]	0.256 ± 0.039

Variant	abundance fitness
GNAVQEIMIPASKAGLVIGKGGETIKQLQERAGVGMVMIQDGPQNTGADKPLRITGDPYKVQQAKEMVLELIRD [K35G]	-0.071 ± 0.027
GNAVQEIMIPASKAGLVIGKGGETIKQLQERAGVKMVMIQDGPQNTGADKNLRITGDPYKVQQAKEMVLELIRD [P51N]	-0.049 ± 0.055
GNAVQEIMIPASKAGLVIGKGGETIKQLQERAGVKMVMIQDGPQNTGADKILRITGDPYKVQQAKEMVLELIRD [P51I]	-0.086 ± 0.045
GNAVQEIMIPASKAGLVIGKGGETITQLQERAGVKMVMIQDGPQNTGADKPLRITGDPYKVQQAKEMVLELIRD [K26T]	-0.066 ± 0.035
GNAVQEIMIPASKAGLVIGKGGETIKQLQERAGVKMVMIQDGPQNTGADKPLRITGDPYKVQQAFEMVLELIRD [K65F]	-0.241 ± 0.049
GNAVQEIMIPASKAGLVIGKGGETIKQLQERAGVKMVMIQDGPQNTGADKPLRITGDPYIVQQAKEMVLELIRD [K60I]	-0.653 ± 0.072
GNAVQEIMIPASKAGLVIGKGGETIKQLQERAGVKMVMIQDGPQNTGADKPLRITGDPYQVQQAKEMVLELIRD [K60Q]	-0.037 ± 0.038
GNAVQEIMMPASKAGLVIGKGGETIKQLQERAGVKMVMIQDGPQNTGADKPLRITGDPYKVQQAKEMVLELIRD [I9M]	-0.312 ± 0.039
GNAVQEIMIPASKAGLVIGKGGETIKQLQERAGVKMVMIQDGPQNTGADKPLRITGDPYKVQQAKEMVLELNRD [I72N]	-0.398 ± 0.052
GNAVQEIMIPASKAGLVIGKGGETIKQLQERAGVKMVMIQDGPQNTGADKPLRITGDPYKVQQAKEMVLELGRD [I72G]	-0.329 ± 0.028
GNAVQEIMIPASKAGLVIGKGGETIKQLQERAGVKMVMIQDGKQNTGADKPLRITGDPYKVQQAKEMVLELIRD [P43K]	0.064 ± 0.048
GNAVQEIMIPASKAGLVIGKGGETIKQLQERAGVKMVMIQDGPQNTGADKPLRITGDPYKVQQAKEMVLQLIRD [E70Q]	-0.072 ± 0.038
GNAVQEIMIPASKAGLVIGKGGETIKQLQERAGVKMVMIQDGPQNTGADKPLRITGDPYKVQQAKEMVLRLIRD [E70R]	-0.063 ± 0.026
GNAVQEIMIPASKAGLVIGKGGETIKQLQERAGVKMVMIQDGPQNTGADKPLRITGDPYKEQQAKEMVLELIRD [V61E]	-0.787 ± 0.049
GNAVQEIMIPASKAGLVIGKGGETIKQLQERAGVKMVMIQDGPQNTGADKPLRITGDPYKWQQAKEMVLELIRD [V61W]	-1.17 ± 0.077
GNAQQEIMIPASKAGLVIGKGGETIKQLQERAGVKMVMIQDGPQNTGADKPLRITGDPYKVQQAKEMVLELIRD [V4Q]	0.009 ± 0.04
GNAAQEIMIPASKAGLVIGKGGETIKQLQERAGVKMVMIQDGPQNTGADKPLRITGDPYKVQQAKEMVLELIRD [V4A]	-0.259 ± 0.033
GNAVQEIMIPASKAGLVIGKGGETIKQLQERAGVKMVMIIDGPQNTGADKPLRITGDPYKVQQAKEMVLELIRD [Q40I]	-0.147 ± 0.065
